Results: publication PMC8919193
Values belong to the substance of their own block, whether it stands above or below them.

Columns and labels:
[1] = target: unmodified and H2BK120ub nucleosomes; assay: FRET or BRET
[2] = target: Alexa Fluor 488-labeled H2BK120ub nucleosome, H2A(L65C), H3K79Nle (UniProt P0CG47); assay: other fluorescence titration
[3] = target: unmodified nucleosome, H3K79Nle, Alexa Fluor 488 on H2A(L65C) (human) (UniProt P62807); assay: FRET or BRET

Kd [1]: 0.032 to 0.036 µM
Substance: Atto647N-labeled DOT1Lcat(C45A, C75A, C179A, N324C) (from UniProt Q8TEK3 1-416) (domain or fragment)

Kd [2]: 0.12 µM
Substance: DOT1Lcat (human DOT1L residues 1–416) (from UniProt Q8TEK3 1-416) (domain or fragment)

Kd [3]: 0.038 µM
Substance: DOT1Lcat(F326A, C45A, C75A, C179A, N324C), Atto647N-labeled (from UniProt Q8TEK3 1-416) (domain or fragment)
